Data as given in US20200024330A1.

What was measured:
Assay in all cases: cell-based or functional assay
[1] = target: HIV-1 IAVI-C18 envelope protein (Env) on pseudovirus (HIV-1)
[2] = target: HIV-1 Env of pseudovirus 6535.3 (Acute), clade B (HIV-1)
[3] = target: HIV-1 Env of isolate MGRM-G-028 (subtype G) (HIV-1)
[4] = target: HIV-1 Env of isolate 98CN009 (HIV-1)
[5] = target: HIV-1 Env of isolate MGRM-D-011 (clade D) (HIV-1)
[6] = target: HIV-1 MGRM-A-014 envelope glycoprotein (Env) (HIV-1)
[7] = target: HIV-1 MGRM-A-013 envelope glycoprotein (Env) (HIV-1)
[8] = target: HIV-1 MGRM-F1-012 Env (pseudovirus) (HIV-1)
[9] = target: HIV-1 MGRM-A-003 envelope glycoprotein (Env) (HIV-1)
[10] = target: HIV-1 Env of isolate 92UG114 (HIV-1)
[11] = target: HIV-1 Env of pseudovirus CAAN.A2 (Acute), clade B (HIV-1)
[12] = target: HIV-1 MGRM-C-027 envelope glycoprotein (Env) on pseudovirus (HIV-1)
[13] = target: HIV-1 MGRM-C-010 Env (HIV-1)
[14] = target: HIV-1 Env of isolate MGRM-F1-016 (HIV-1)
[15] = target: HIV-1 MGRM-C-007 Env (HIV-1)
[16] = target: HIV-1 92UG031 envelope glycoprotein (Env) (HIV-1)
[17] = target: HIV-1 98CN009 envelope glycoprotein (Env) on pseudovirus (HIV-1)
[18] = target: HIV-1 Env of isolate MGRM-D-011 (HIV-1)
[19] = target: HIV-1 Env of isolate MGRM-D-020 (clade D) (HIV-1)
[20] = target: HIV-1 Env of isolate MGRM-D-019 (HIV-1)
[21] = target: HIV-1 93IN905 envelope glycoprotein (Env) on pseudovirus (HIV-1)
[22] = target: HIV-1 Env of pseudovirus TRJ0.58 (Acute), clade B (HIV-1)
[23] = target: HIV-1 Env of isolate MGRM-D-016 (HIV-1)
[24] = target: aMLV envelope on pseudovirus (negative control virus)
[25] = target: HIV-1 Env of isolate MG RM-D-028 (subtype D) (HIV-1)
[26] = target: HIV-1 Env of isolate MGRM-F1-008 (subtype F) (HIV-1)
[27] = target: HIV-1 MGRM-Chronic-B-017 Env (pseudovirus) (HIV-1)
[28] = target: HIV-1 NL43 Env (pseudovirus) (HIV-1)
[29] = target: HIV-1 JR-CSF Env N188A (HIV-1 (isolate JR-CSF)) (UniProt P20871)
[30] = target: HIV-1 JR-CSF Env K168A (HIV-1 (isolate JR-CSF)) (UniProt P20871)
[31] = target: HIV-1 Env of isolate MGRM-C-027 (HIV-1)
[32] = target: HIV-1 Env of isolate QH0692.42 (HIV-1)
[33] = target: HIV-1 Env of isolate TRJ04551.58 (HIV-1)
[34] = target: HIV-1 Env of isolate MGRM-D-024 (subtype D), on pseudovirus (HIV-1)
[35] = target: HIV-1 Env of isolate 93UG077 (HIV-1)
[36] = target: HIV-1 Env of isolate MGRM-C-014 (HIV-1)
[37] = target: HIV-1 Env of isolate MGRM-F1-018 (subtype F), on pseudovirus (HIV-1)
[38] = target: HIV-1 Env of isolate MGRM-AE-001 (CRF01_AE), on pseudovirus (HIV-1)
[39] = target: HIV-1 Env of isolate MGRM-AE-004 (CRF01_AE), on pseudovirus (HIV-1)
[40] = target: HIV-1 Env of isolate MG RM-A-006 (HIV-1)
[41] = target: HIV-1 Env of isolate MGRM-F1-006 (subtype F), on pseudovirus (HIV-1)

1496_C09 (PG9) (TCN-109) (antibody) was tested, and the neutralization IC50 [1] was 0.0535 µg/mL, the IC50 (µg/ml), pseudovirus neutralization [2] was 0.22 µg/mL and the neutralization IC50 [3] was 0.891 µg/mL. For the same substance, the IC50, pseudovirus neutralization [4] was 0.371 µg/mL, the IC50 (µg/ml), pseudovirus neutralization [5] was 0.06 µg/mL and the IC50 (µg/ml), pseudovirus neutralization [6] was 0.62 µg/mL. It also gave an IC50 (µg/ml), pseudovirus neutralization [7] of 0.16 µg/mL, an IC50 (µg/ml), pseudovirus neutralization [8] of 0.01 µg/mL and an IC50 (µg/ml), pseudovirus neutralization [9] of 0.65 µg/mL. For the same substance, the IC50 (µg/mL), pseudovirus neutralization [10] was 40.6 µg/mL, the IC50 (µg/ml), pseudovirus neutralization [11] was 5.67 µg/mL and the IC50 (ug/ml), neutralizing activity [12] was 2.45 µg/mL. For the same substance, the IC50 neutralization [12] was 2.45 µg/mL, the IC50 [13] was 12.4 µg/mL and the IC50 (µg/mL), pseudovirus neutralization [14] was 0.518 µg/mL. For the same substance, the IC50 [15] was 0.09 µg/mL, the IC50 (µg/ml), pseudovirus neutralization [16] was 3.08 µg/mL and the IC50 (µg/ml), pseudovirus neutralization [17] was 1.07 µg/mL. The IC50 (µg/mL), pseudovirus neutralization [18] was 0.071 µg/mL, the IC50 (µg/ml), pseudovirus neutralization [19] was 2.03 µg/mL and the IC50 (µg/mL), pseudovirus neutralization [20] was 0.038 µg/mL. The IC50 (ug/ml), neutralizing activity [21] was 0.048 µg/mL, the IC50 neutralization [21] was 0.048 µg/mL and the IC80, neutralization [21] was 0.308 µg/mL. For the same substance, the IC90 (pseudovirus neutralization) [21] was 1.89 µg/mL, the IC90, neutralization [21] was 0.981 µg/mL and the IC95, neutralization [21] was 3.31 µg/mL. The IC50 (µg/ml), pseudovirus neutralization [22] was 0.43 µg/mL and the IC50 (µg/mL), pseudovirus neutralization [23] was 0.098 µg/mL.
With 4838_L06 (PGT-121) (antibody) the IC50 (ug/ml), neutralizing activity [24] was > 10 µg/mL, the IC50 (µg/mL), pseudovirus neutralization [25] was 0.009 µg/mL and the IC50 (µg/mL), pseudovirus neutralization [26] was > 50 µg/mL. For the same substance, the IC50, pseudovirus neutralization [27] was > 50 µg/mL, the IC50 [14] was 0.931 µg/mL and the IC50, pseudovirus neutralization [28] was > 50 µg/mL.
In the case of 4858_P08 (PGT-123) (antibody), the IC50 (ug/ml), neutralizing activity [24] is reported as > 10 µg/mL, the IC50 (µg/mL), pseudovirus neutralization [25] is reported as 0.132 µg/mL and the Fold IC50 increase relative to wild-type [29] is reported as 1.1 fold. For the same substance, the IC50 (ug/ml), neutralizing activity [12] was 0.0169 µg/mL, the IC50, pseudovirus neutralization [12] was 0.0169 µg/mL and the IC80, pseudovirus neutralization [12] was 0.149 µg/mL. The IC90 (pseudovirus neutralization) [12] was > 10 µg/mL, the IC95, pseudovirus neutralization [12] was > 10 µg/mL and the IC50 (µg/mL), pseudovirus neutralization [26] was > 50 µg/mL. The Fold IC50 increase relative to wild-type [30] was 0.8 fold, the IC50, pseudovirus neutralization [27] was > 50 µg/mL and the IC50 [14] was 4.95 µg/mL. The IC50, pseudovirus neutralization [28] was > 50 µg/mL, the IC50 (ug/ml), neutralizing activity [21] was 0.0071 µg/mL and the IC50, pseudovirus neutralization [21] was 0.0071 µg/mL. The IC80, pseudovirus neutralization [21] was 0.0281 µg/mL, the IC90 (pseudovirus neutralization) [21] was 0.0625 µg/mL and the IC95, pseudovirus neutralization [21] was 0.131 µg/mL.
With 4877_D15 (PGT-122) (antibody) the IC50 (ug/ml), neutralizing activity [24] was > 10 µg/mL, the IC50 (µg/mL), pseudovirus neutralization [25] was 3.34 µg/mL and the IC50 (ug/ml), neutralizing activity [12] was 0.0388 µg/mL. For the same substance, the IC50 (µg/mL), pseudovirus neutralization [26] was > 50 µg/mL, the IC50, pseudovirus neutralization [27] was 5.66 µg/mL and the IC50 [14] was 4.81 µg/mL. The IC50, pseudovirus neutralization [28] was > 50 µg/mL and the IC50 (ug/ml), neutralizing activity [21] was 0.0138 µg/mL.
5114_A19 (PGT-128) (antibody) gave an IC50 [31] of 0.081 µg/mL, an IC50 [32] of 0.029 µg/mL and an IC50 [33] of 0.019 µg/mL. For the same substance, the IC50 [4] was 0.025 µg/mL, the IC50, pseudovirus neutralization [34] was 0.067 µg/mL and the IC50 [10] was 0.083 µg/mL. The Fold IC50 increase relative to wild-type [29] was 1.3 fold, the neutralization IC50 [35] was 0.014 µg/mL and the IC50 [36] was > 50 µg/mL. The Fold IC50 increase relative to wild-type [30] was 1.1 fold, the IC50, pseudovirus neutralization [37] was 0.023 µg/mL and the IC50, single-round pseudovirus neutralization [38] was 0.069 µg/mL. The IC50, single-round pseudovirus neutralization [39] was > 50 µg/mL, the neutralization IC50 [40] was > 50 µg/mL and the IC50, pseudovirus neutralization [41] was 0.763 µg/mL. The IC50 [18] was 0.007 µg/mL, the IC50 [20] was > 50 µg/mL and the IC50 [23] was > 50 µg/mL.
5123_A06 (PGT-125) (antibody) was tested, and the IC50 (ug/ml), neutralizing activity [24] was > 10 µg/mL, the IC50 (µg/mL), pseudovirus neutralization [25] was > 50 µg/mL and the Fold IC50 increase relative to wild-type [29] was 0.7 fold. The IC50 (ug/ml), neutralizing activity [12] was > 10 µg/mL, the neutralization IC50 [12] was > 10 µg/mL and the neutralization IC80 [12] was > 10 µg/mL. The neutralization IC90 [12] was > 10 µg/mL, the neutralization IC95 [12] was > 10 µg/mL and the IC50 (µg/mL), pseudovirus neutralization [26] was 0.361 µg/mL. The Fold IC50 increase relative to wild-type [30] was 0.9 fold, the IC50, pseudovirus neutralization [27] was > 50 µg/mL and the IC50 [14] was > 50 µg/mL. For the same substance, the IC50, pseudovirus neutralization [28] was > 50 µg/mL, the IC50 (ug/ml), neutralizing activity [21] was 0.0137 µg/mL and the neutralization IC50 [21] was 0.0137 µg/mL. It also gave a neutralization IC80 [21] of 0.0494 µg/mL, a neutralization IC90 [21] of 0.106 µg/mL and a neutralization IC95 [21] of 0.216 µg/mL.
For 5136_H01 (PGT-131) (antibody), the IC50 [31] was 0.065 µg/mL, the IC50 [32] was > 50 µg/mL and the IC50 [33] was 0.088 µg/mL. The IC50 [4] was 4.05 µg/mL, the IC50, pseudovirus neutralization [34] was > 50 µg/mL and the IC50 [10] was > 50 µg/mL. For the same substance, the Fold IC50 increase relative to wild-type [29] was 0.9 fold, the neutralization IC50 [35] was > 50 µg/mL and the IC50 [36] was > 50 µg/mL. For the same substance, the Fold IC50 increase relative to wild-type [30] was 1.7 fold, the IC50, pseudovirus neutralization [37] was > 50 µg/mL and the IC50, single-round pseudovirus neutralization [38] was 4.8 µg/mL. For the same substance, the IC50, single-round pseudovirus neutralization [39] was > 50 µg/mL, the neutralization IC50 [40] was > 50 µg/mL and the IC50, pseudovirus neutralization [41] was > 50 µg/mL. For the same substance, the IC50 [18] was 0.756 µg/mL, the IC50 [20] was > 50 µg/mL and the IC50 [23] was > 50 µg/mL.
In the case of 5141_B17 (PGT-126) (antibody), the IC50 (ug/ml), neutralizing activity [24] is reported as > 10 µg/mL, the IC50 (µg/mL), pseudovirus neutralization [25] is reported as > 50 µg/mL and the Fold IC50 increase relative to wild-type [29] is reported as 0.8 fold. The IC50 (ug/ml), neutralizing activity [12] was 1.14 µg/mL, the IC50 (µg/mL), pseudovirus neutralization [26] was > 50 µg/mL and the Fold IC50 increase relative to wild-type [30] was 0.7 fold. For the same substance, the IC50, pseudovirus neutralization [27] was > 50 µg/mL, the IC50 [14] was > 50 µg/mL and the IC50 [28] was > 10 µg/mL. For the same substance, the IC50, pseudovirus neutralization [28] was > 50 µg/mL, the IC80 [28] was > 10 µg/mL and the IC90 [28] was > 10 µg/mL. For the same substance, the IC95 [28] was > 10 µg/mL and the IC50 (ug/ml), neutralizing activity [21] was 0.0194 µg/mL.
For 5145_B14 (PGT-127) (antibody), the IC50 (µg/mL), pseudovirus neutralization [25] was > 50 µg/mL, the Fold IC50 increase relative to wild-type [29] was 0.8 fold and the IC50 (µg/mL), pseudovirus neutralization [26] was > 50 µg/mL. The Fold IC50 increase relative to wild-type [30] was 1.9 fold, the IC50, pseudovirus neutralization [27] was > 50 µg/mL and the IC50 [14] was > 50 µg/mL. The IC50, pseudovirus neutralization [28] was > 50 µg/mL.
